Two proteins from PMC9894557, “The opportunistic pathogen Pseudomonas aeruginosa exploits bacterial biotin synthesis pathway to benefit its infectivity” (PLOS Pathogens, 2023) can be followed below.

Numbering of substitutions follows the chain as printed. In names and notes the source's numbering stands.

The data set deals with the molecule itself. The data set is described as follows: SEC; gel filtration on a Superdex 75 column; Streptococcus suis FakB2 (~33 kDa, known monomer) as size control.

B1: Pseudomonas aeruginosa BioH (PA0502) S66A (enzyme)
chain: MRDHLILLPGWGLGSAPLEPLRDALHEREPHLNVLIEPLPSLDDAADWLDELDDNLPRDSWLAGWALGGMLAGELAARRGDDCRGLLTLASNPCFRVREDWPNAMPAETFEDFFEAFLLEPHLTRKRFTLLVSQGARDPRTLARQLQVALPQLEREALVAGLQLLGQLDTRAALENFRGPQLHLFAEADALVPLAAAEALLEWLPDVEVSTLAASHGLPLECPDEVAGAILRFLREGDDA
notes: BioH (PA0502), Pseudomonas aeruginosa PAO1, catalytic triad mutant; Purification is described only for the wild type; also called BioH(S66A); source: E. coli, from pET28a::bioH(S66A), purified
As for B1, the binding result was “binds”.

B2: Pseudomonas aeruginosa BioH (PA0502) D189A (enzyme)
chain: B1 chain with A66S, D189A
notes: BioH (PA0502), Pseudomonas aeruginosa PAO1, catalytic triad mutant; Purification is described only for the wild type; also called BioH(D189A); source: E. coli, from pET28a::bioH(D189A), purified
As for B2, the binding result is given as “binds”.
